Assay results from paper PMC9584538 (Cell reports, 2022).
Positions count from the first letter of the chain named. In names and notes the source's numbering stands. Several values for one entry are separate records, joined by “and”; a condition that tells them apart may be missing. Equal values may be shown once. Read-outs that look alike come from different tables or passages of the source. Each block holds one binder with its values, some of them ahead of it.

Key:
SEC [1] = biological target: the molecule itself; assay: SEC
[2] = biological target: T1, PARL-protease-activated Skd3 (human CLPB), wild type (human, UniProt Q9H078 127-707); assay: FRET or BRET
T1 sequence (looked up): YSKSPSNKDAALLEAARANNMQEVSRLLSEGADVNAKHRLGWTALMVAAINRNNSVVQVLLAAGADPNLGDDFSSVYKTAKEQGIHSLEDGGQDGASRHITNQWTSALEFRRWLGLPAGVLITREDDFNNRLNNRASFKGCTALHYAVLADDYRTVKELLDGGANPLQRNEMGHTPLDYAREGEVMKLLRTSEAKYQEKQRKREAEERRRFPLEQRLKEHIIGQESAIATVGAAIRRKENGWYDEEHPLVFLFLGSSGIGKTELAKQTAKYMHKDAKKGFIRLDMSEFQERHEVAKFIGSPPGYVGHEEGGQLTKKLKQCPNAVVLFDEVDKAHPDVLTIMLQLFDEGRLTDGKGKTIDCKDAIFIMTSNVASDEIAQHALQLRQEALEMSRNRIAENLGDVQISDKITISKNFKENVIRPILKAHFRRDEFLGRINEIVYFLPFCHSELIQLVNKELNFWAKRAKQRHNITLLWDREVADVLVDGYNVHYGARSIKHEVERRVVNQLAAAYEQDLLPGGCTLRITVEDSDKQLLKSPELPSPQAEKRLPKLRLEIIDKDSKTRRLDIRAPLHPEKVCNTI

SEC [3] = biological target: the molecule itself; assay: SEC; remark: listed apart in the source

B1: _(PARL)Skd3^A591V (MGCA7-linked variant) (enzyme, human, UniProt Q9H078 127-707, looked up)
chain: T1 sequence (looked up) with A465V
stoichiometry N (SEC [1]): 6 and 12 | binding result [2]: binds

B3: _(PARL)Skd3^N496K (SCN-linked variant, sensor-1) (enzyme, human, UniProt Q9H078 127-707, looked up)
chain: T1 sequence (looked up) with N370K
stoichiometry N (SEC [1]): 6 | binding result [2]: binds

B5: _(PARL)Skd3^R620C (SCN-linked variant, sensor-2) (enzyme, human, UniProt Q9H078 127-707, looked up)
chain: T1 sequence (looked up) with R494C
stoichiometry N (SEC [1]): 12 | binding result [2]: binds

B7: _(PARL)Skd3^R561G (SCN-linked variant, Arg finger) (enzyme, human, UniProt Q9H078 127-707, looked up)
chain: T1 sequence (looked up) with R435G
stoichiometry N (SEC [1]): 12 | binding result [2]: binds

B8: _(PARL)Skd3^Δ3-4 (ankyrin repeats 3 and 4 deleted, ΔS263-K325) (enzyme, human, UniProt Q9H078 127-707, looked up)
chain: YSKSPSNKDAALLEAARANNMQEVSRLLSEGADVNAKHRLGWTALMVAAINRNNSVVQVLLAAGADPNLGDDFSSVYKTAKEQGIHSLEDGGQDGASRHITNQWTSALEFRRWLGLPAGVLITREDDFNNRLNNRAQRKREAEERRRFPLEQRLKEHIIGQESAIATVGAAIRRKENGWYDEEHPLVFLFLGSSGIGKTELAKQTAKYMHKDAKKGFIRLDMSEFQERHEVAKFIGSPPGYVGHEEGGQLTKKLKQCPNAVVLFDEVDKAHPDVLTIMLQLFDEGRLTDGKGKTIDCKDAIFIMTSNVASDEIAQHALQLRQEALEMSRNRIAENLGDVQISDKITISKNFKENVIRPILKAHFRRDEFLGRINEIVYFLPFCHSELIQLVNKELNFWAKRAKQRHNITLLWDREVADVLVDGYNVHYGARSIKHEVERRVVNQLAAAYEQDLLPGGCTLRITVEDSDKQLLKSPELPSPQAEKRLPKLRLEIIDKDSKTRRLDIRAPLHPEKVCNTI
stoichiometry N (SEC [3]): 12

B9: _(PARL)Skd3^ΔL (ANK linker deleted, ΔD197-A262) (enzyme, human, UniProt Q9H078 127-707, looked up)
chain: YSKSPSNKDAALLEAARANNMQEVSRLLSEGADVNAKHRLGWTALMVAAINRNNSVVQVLLAAGADPNLGSFKGCTALHYAVLADDYRTVKELLDGGANPLQRNEMGHTPLDYAREGEVMKLLRTSEAKYQEKQRKREAEERRRFPLEQRLKEHIIGQESAIATVGAAIRRKENGWYDEEHPLVFLFLGSSGIGKTELAKQTAKYMHKDAKKGFIRLDMSEFQERHEVAKFIGSPPGYVGHEEGGQLTKKLKQCPNAVVLFDEVDKAHPDVLTIMLQLFDEGRLTDGKGKTIDCKDAIFIMTSNVASDEIAQHALQLRQEALEMSRNRIAENLGDVQISDKITISKNFKENVIRPILKAHFRRDEFLGRINEIVYFLPFCHSELIQLVNKELNFWAKRAKQRHNITLLWDREVADVLVDGYNVHYGARSIKHEVERRVVNQLAAAYEQDLLPGGCTLRITVEDSDKQLLKSPELPSPQAEKRLPKLRLEIIDKDSKTRRLDIRAPLHPEKVCNTI
stoichiometry N (SEC [3]): 12 and 6

The next lines start with results.

binding result [2]: binds
B2: _(PARL)Skd3^K387A (Walker A) (enzyme, human, UniProt Q9H078 127-707, looked up)
chain: T1 sequence (looked up) with K261A

binding result [2]: binds
B4: _(PARL)Skd3^R408G (MGCA7-linked variant) (enzyme, human, UniProt Q9H078 127-707, looked up)
chain: T1 sequence (looked up) with R282G
stoichiometry N (SEC [1]): 12

binding result [2]: binds
B6: _(PARL)Skd3^R475Q (MGCA7-linked variant) (enzyme, human, UniProt Q9H078 127-707, looked up)
chain: T1 sequence (looked up) with R349Q
stoichiometry N (SEC [1]): 12
